Measured values from patent US20150328292A1, “CASPASE POLYPEPTIDES HAVING MODIFIED ACTIVITY AND USES THEREOF” (BELLICUM PHARMACEUTICALS, INC., priority 2014, published 2015).
Entries after “also recorded” stand apart in the source; their conditions may differ.

System: HEK293T/16 cells
Experiment: SEAP reporter-based surrogate killing assay (basal activity and AP1903 IC50)
Format: cell-based, human
Details: AP1903-independent SEAP activity, vs wild type
Protocol: FIG. 45 provides a schematic of an analysis of SEAP assays. […] of the mixture was seeded onto each well of a 96-well plate. […] For the assay, 4-methylumbelliferyl phosphate substrate was hydrolyzed by SEAP to 4-methylumbelliferon, a metabolite that can be excited with 364 nm and detected with an emission filter of 448 nm. Since SEAP is used as a marker for cell viability, reduced SEAP reading corresponds with increased icaspase-9 activities.
Early passage HEK293T/16 cells (ATCC, Manassas, Va.) were maintained in IMDM, GlutaMAX™ (Life Technologies, Carlsbad, Calif.) supplemented with 10% FBS, 100 U/mL penicillin, and 100 […] until transfection in a humidified, 37° C., 5% CO2/95% air atmosphere. Cells in logarithmic-phase growth were transiently transfected with 800 ng to 2 μg of expression plasmid encoding iCasp9 mutants and 500 ng of an expression plasmid encoding SRα promoter driven SEAP per million cells in 15-mL conical tubes. […] GeneJammer® Transfection Reagent at a ratio of 3 μl per ug of plasmid DNA was used to transiently transfect HEK293T/16 cells in the absence of antibiotics. 100 μl or 2 mL of the transfection mixture was added to each well in 96-well or 6-well plate, respectively.
Briefly, after 65° C. heat denaturation for 45 minutes to reduce background caused by endogenous (and serum-derived) alkaline phosphatases that are sensitive to heat, 5 μl of supernatants was added to 95 μl of PBS and added to 100 μl of substrate buffer, containing 1 μl of 100 mM 4-methylumbelliferyl phosphate (4-MUP; Sigma, St. Louis, Mo.) re-suspended in 2 M diethanolamine. Hydrolysis of 4-MUP by SEAP produces a fluorescent […] with excitation/emission (355/460 nm), which can be easily measured. Assays were performed in black opaque 96-well plates to minimize fluorescence leakage between wells (FIG. 45).

| Molecule | basal activity / basal signaling (in words) |
| --- | --- |
| T317S: chimeric modified caspase-9 polypeptide variant (protein) VDGFGDVGALESLRGNADLAYILSMEPCGHCLIINNVNFCRESGLRTRTGSNIDCEKLRRRFSSLHFMVEVKGDLTAKKMVLALLELARQDHGALDCCVVVILSHGCQASHLQFPGAVYGTDGCPVSVEKIVNIFNGTSCPSLGGKPKLFFIQACGGEQKDHGFEVASTSPEDESPGSNPEPDASPFQEGLRTFDQLDAISSLPTPSDIFVSYSTFPGFVSWRDPKSGSWYVETLDDIFEQWAHSEDLQSLLLRVANAVSVKGIYKQMPGCFNFLRKKLFFKTSASRA | lower basal activity; also recorded: reduce basal activity; also recorded: decrease in basal activity |
| T317A: chimeric modified caspase-9 polypeptide variant (protein) VDGFGDVGALESLRGNADLAYILSMEPCGHCLIINNVNFCRESGLRTRTGSNIDCEKLRRRFSSLHFMVEVKGDLTAKKMVLALLELARQDHGALDCCVVVILSHGCQASHLQFPGAVYGTDGCPVSVEKIVNIFNGTSCPSLGGKPKLFFIQACGGEQKDHGFEVASTSPEDESPGSNPEPDAAPFQEGLRTFDQLDAISSLPTPSDIFVSYSTFPGFVSWRDPKSGSWYVETLDDIFEQWAHSEDLQSLLLRVANAVSVKGIYKQMPGCFNFLRKKLFFKTSASRA | lower basal activity; also recorded: reduce basal activity; also recorded: decrease in basal activity |
| D330S: chimeric modified caspase-9 polypeptide variant (protein) VDGFGDVGALESLRGNADLAYILSMEPCGHCLIINNVNFCRESGLRTRTGSNIDCEKLRRRFSSLHFMVEVKGDLTAKKMVLALLELARQDHGALDCCVVVILSHGCQASHLQFPGAVYGTDGCPVSVEKIVNIFNGTSCPSLGGKPKLFFIQACGGEQKDHGFEVASTSPEDESPGSNPEPDATPFQEGLRTFDQLSAISSLPTPSDIFVSYSTFPGFVSWRDPKSGSWYVETLDDIFEQWAHSEDLQSLLLRVANAVSVKGIYKQMPGCFNFLRKKLFFKTSASRA | less basal activity than wild type caspase-9; also recorded: statistically lower basal signaling |
| S196D: chimeric modified caspase-9 polypeptide variant (protein) VDGFGDVGALESLRGNADLAYILSMEPCGHCLIINNVNFCRESGLRTRTGSNIDCEKLRRRFSDLHFMVEVKGDLTAKKMVLALLELARQDHGALDCCVVVILSHGCQASHLQFPGAVYGTDGCPVSVEKIVNIFNGTSCPSLGGKPKLFFIQACGGEQKDHGFEVASTSPEDESPGSNPEPDATPFQEGLRTFDQLDAISSLPTPSDIFVSYSTFPGFVSWRDPKSGSWYVETLDDIFEQWAHSEDLQSLLLRVANAVSVKGIYKQMPGCFNFLRKKLFFKTSASRA | lower basal activity |
| D330G: chimeric modified caspase-9 polypeptide variant (protein) VDGFGDVGALESLRGNADLAYILSMEPCGHCLIINNVNFCRESGLRTRTGSNIDCEKLRRRFSSLHFMVEVKGDLTAKKMVLALLELARQDHGALDCCVVVILSHGCQASHLQFPGAVYGTDGCPVSVEKIVNIFNGTSCPSLGGKPKLFFIQACGGEQKDHGFEVASTSPEDESPGSNPEPDATPFQEGLRTFDQLGAISSLPTPSDIFVSYSTFPGFVSWRDPKSGSWYVETLDDIFEQWAHSEDLQSLLLRVANAVSVKGIYKQMPGCFNFLRKKLFFKTSASRA | less basal activity than wild type caspase-9 |
| A316G: chimeric modified caspase-9 polypeptide variant (protein) VDGFGDVGALESLRGNADLAYILSMEPCGHCLIINNVNFCRESGLRTRTGSNIDCEKLRRRFSSLHFMVEVKGDLTAKKMVLALLELARQDHGALDCCVVVILSHGCQASHLQFPGAVYGTDGCPVSVEKIVNIFNGTSCPSLGGKPKLFFIQACGGEQKDHGFEVASTSPEDESPGSNPEPDGTPFQEGLRTFDQLDAISSLPTPSDIFVSYSTFPGFVSWRDPKSGSWYVETLDDIFEQWAHSEDLQSLLLRVANAVSVKGIYKQMPGCFNFLRKKLFFKTSASRA | lower basal activity |
| S183A: chimeric modified caspase-9 polypeptide variant (protein) VDGFGDVGALESLRGNADLAYILSMEPCGHCLIINNVNFCRESGLRTRTGANIDCEKLRRRFSSLHFMVEVKGDLTAKKMVLALLELARQDHGALDCCVVVILSHGCQASHLQFPGAVYGTDGCPVSVEKIVNIFNGTSCPSLGGKPKLFFIQACGGEQKDHGFEVASTSPEDESPGSNPEPDATPFQEGLRTFDQLDAISSLPTPSDIFVSYSTFPGFVSWRDPKSGSWYVETLDDIFEQWAHSEDLQSLLLRVANAVSVKGIYKQMPGCFNFLRKKLFFKTSASRA | lower basal activity |
| D330V: chimeric modified caspase-9 polypeptide variant (protein) VDGFGDVGALESLRGNADLAYILSMEPCGHCLIINNVNFCRESGLRTRTGSNIDCEKLRRRFSSLHFMVEVKGDLTAKKMVLALLELARQDHGALDCCVVVILSHGCQASHLQFPGAVYGTDGCPVSVEKIVNIFNGTSCPSLGGKPKLFFIQACGGEQKDHGFEVASTSPEDESPGSNPEPDATPFQEGLRTFDQLVAISSLPTPSDIFVSYSTFPGFVSWRDPKSGSWYVETLDDIFEQWAHSEDLQSLLLRVANAVSVKGIYKQMPGCFNFLRKKLFFKTSASRA | less basal activity than wild type caspase-9 |
| D330N: chimeric modified caspase-9 polypeptide variant (protein) VDGFGDVGALESLRGNADLAYILSMEPCGHCLIINNVNFCRESGLRTRTGSNIDCEKLRRRFSSLHFMVEVKGDLTAKKMVLALLELARQDHGALDCCVVVILSHGCQASHLQFPGAVYGTDGCPVSVEKIVNIFNGTSCPSLGGKPKLFFIQACGGEQKDHGFEVASTSPEDESPGSNPEPDATPFQEGLRTFDQLNAISSLPTPSDIFVSYSTFPGFVSWRDPKSGSWYVETLDDIFEQWAHSEDLQSLLLRVANAVSVKGIYKQMPGCFNFLRKKLFFKTSASRA | less basal activity than wild type caspase-9 |
| P318A: chimeric modified caspase-9 polypeptide variant (protein, UniProt P55211 1-416, looked up, variant P318A, chimeric, fused to FKBP12v36, chimeric modified caspase-9 polypeptide variant) MDEADRRLLRRCRLRLVEELQVDQLWDALLSRELFRPHMIEDIQRAGSGSRRDQARQLIIDLETRGSQALPLFISCLEDTGQDMLASFLRTNRQAAKLSKPTLENLTPVVLRPEIRKPEVLRPETPRPVDIGSGGFGDVGALESLRGNADLAYILSMEPCGHCLIINNVNFCRESGLRTRTGSNIDCEKLRRRFSSLHFMVEVKGDLTAKKMVLALLELAQQDHGALDCCVVVILSHGCQASHLQFPGAVYGTDGCPVSVEKIVNIFNGTSCPSLGGKPKLFFIQACGGEQKDHGFEVASTSPEDESPGSNPEPDATAFQEGLRTFDQLDAISSLPTPSDIFVSYSTFPGFVSWRDPKSGSWYVETLDDIFEQWAHSEDLQSLLLRVANAVSVKGIYKQMPGCFNFLRKKLFFKTS | no effect |
| F319W: chimeric modified caspase-9 polypeptide variant (protein, UniProt P55211 1-416, looked up, variant F319W, chimeric, fused to FKBP12v36, chimeric modified caspase-9 polypeptide variant) MDEADRRLLRRCRLRLVEELQVDQLWDALLSRELFRPHMIEDIQRAGSGSRRDQARQLIIDLETRGSQALPLFISCLEDTGQDMLASFLRTNRQAAKLSKPTLENLTPVVLRPEIRKPEVLRPETPRPVDIGSGGFGDVGALESLRGNADLAYILSMEPCGHCLIINNVNFCRESGLRTRTGSNIDCEKLRRRFSSLHFMVEVKGDLTAKKMVLALLELAQQDHGALDCCVVVILSHGCQASHLQFPGAVYGTDGCPVSVEKIVNIFNGTSCPSLGGKPKLFFIQACGGEQKDHGFEVASTSPEDESPGSNPEPDATPWQEGLRTFDQLDAISSLPTPSDIFVSYSTFPGFVSWRDPKSGSWYVETLDDIFEQWAHSEDLQSLLLRVANAVSVKGIYKQMPGCFNFLRKKLFFKTS | lower basal activity |
| F319A: chimeric modified caspase-9 polypeptide variant (protein, UniProt P55211 1-416, looked up, variant F319A, chimeric, fused to FKBP12v36, chimeric modified caspase-9 polypeptide variant) MDEADRRLLRRCRLRLVEELQVDQLWDALLSRELFRPHMIEDIQRAGSGSRRDQARQLIIDLETRGSQALPLFISCLEDTGQDMLASFLRTNRQAAKLSKPTLENLTPVVLRPEIRKPEVLRPETPRPVDIGSGGFGDVGALESLRGNADLAYILSMEPCGHCLIINNVNFCRESGLRTRTGSNIDCEKLRRRFSSLHFMVEVKGDLTAKKMVLALLELAQQDHGALDCCVVVILSHGCQASHLQFPGAVYGTDGCPVSVEKIVNIFNGTSCPSLGGKPKLFFIQACGGEQKDHGFEVASTSPEDESPGSNPEPDATPAQEGLRTFDQLDAISSLPTPSDIFVSYSTFPGFVSWRDPKSGSWYVETLDDIFEQWAHSEDLQSLLLRVANAVSVKGIYKQMPGCFNFLRKKLFFKTS | no effect |
